Read-outs that look alike come from different tables or passages of the source. Values belong to the binder of their own block, whether it stands above or below them. Numbered stars: 1 amine (or outer) side, 2 acyl side, 3 side chain; on linkers, the order of the positions; unused ones are H or OH. Bridge positions count the residues as written; N and C are the ends. Side chains are listed from the residue outwards. Ends that are not written are not given here. * marks the point of attachment. C20 diacid = O=C(O)CCCCCCCCCCCCCCCCCCC(=O)*; γGlu = O=C(O)[C@H](CCC(=O)[*:2])N[*:1]; AEEA = NCCOCCOCC(=O)O
Tests used:
[1] = biological target: T1, human calcitonin receptor (human, UniProt P30988 25-474); test: cell-based or functional assay
T1 sequence (looked up): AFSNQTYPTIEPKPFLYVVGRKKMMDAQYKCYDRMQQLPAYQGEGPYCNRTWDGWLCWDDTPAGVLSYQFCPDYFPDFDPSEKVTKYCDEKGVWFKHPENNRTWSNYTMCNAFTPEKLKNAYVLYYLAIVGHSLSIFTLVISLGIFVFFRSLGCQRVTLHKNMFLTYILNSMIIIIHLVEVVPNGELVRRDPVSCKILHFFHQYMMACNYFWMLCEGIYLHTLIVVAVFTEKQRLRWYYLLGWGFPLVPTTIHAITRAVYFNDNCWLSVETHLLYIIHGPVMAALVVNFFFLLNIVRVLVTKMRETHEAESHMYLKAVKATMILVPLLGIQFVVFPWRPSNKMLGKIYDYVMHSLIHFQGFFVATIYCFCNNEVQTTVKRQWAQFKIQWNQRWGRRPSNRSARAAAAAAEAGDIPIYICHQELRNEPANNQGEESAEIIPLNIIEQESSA

[2] = biological target: T2, human amylin receptor (amylin 3(a) receptor: human calcitonin receptor plus RAMP-3) (human, UniProt P30988 25-474; O60896 24-148); test: cell-based or functional assay
T2 sequence (looked up) 1: T1 sequence (looked up)
T2 sequence (looked up) 2: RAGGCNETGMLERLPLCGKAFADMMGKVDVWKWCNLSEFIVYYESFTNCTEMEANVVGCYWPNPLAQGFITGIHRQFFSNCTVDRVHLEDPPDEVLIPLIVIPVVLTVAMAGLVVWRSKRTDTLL

[3] = biological target: T1, human calcitonin receptor; test: cell-based or functional assay; remark: listed apart in the source
[4] = biological target: T2, human amylin receptor (amylin 3(a) …); test: cell-based or functional assay; remark: listed apart in the source
[5] = biological target: T2, human amylin receptor (amylin 3(a) …); test: SPA competition, displacement of 125I-rat amylin from membranes of BHK cells with human calcitonin receptor + RAMP-3 (Assay V)
Procedure: (§1) The binding assay was performed using scintillation proximity assay (SPA) beads (RPNQ0001) from PerkinElmer and cell membranes from the Amylin 3(a)/CRE-luc cells (as described in Assay (II)) were used. Membranes were prepared in the following way; the cells were rinsed with PBS and incubated with Versene for approximately 5 min before harvesting. The cells were flushed with PBS and the cell-suspension was centrifuged for 5 min at 1000 rpm. Cells were homogenized (ultrathurrax) in a buffer containing 20 mM Na-HEPES and 10 mM EDTA (pH 7.4) and centrifuged at 20.000 rpm for 15 min. The resulting pellet was resuspended, homogenized and centrifuged (20.000 rpm, 15 min) in a buffer containing 20 mM Na-HEPES and 0.1 mM EDTA (pH 7.4, buffer 2). The resulting pellet was resuspended in buffer 2 and protein concentration was measured (BCA protein Assay, Pierce). The homogenate was kept cold during the whole procedure. The membranes were kept at −80° C. until use. The assay was performed in a 384 well Optiplate (PerkinElmer) in a total volume of 40 ul. Membranes were mixed with SPA beads. Final concentration of membranes 35 ng/μL final and SPA beads was 0.05 mg/well. Test-compounds were dissolved in DMSO and further diluted in assay buffer (50 mM Hepes, pH 7.4, 1 mM CaCl2, 5 mM MgCl₂, 0.1% OA and 0.02% Tween20). […] The final mixture was incubated with shaking at 400 rpm for 120 min at 25° C. prior to centrifugation (1500 rpm, 10 min). Samples were analyzed on TopCounter™ (Packard). The IC₅₀ was calculated using (one site binding competition analysis) GraphPad Prism5 as a measure of receptor affinity.

[6] = biological target: T2, human amylin receptor (amylin 3(a) …); test: as above; remark: listed apart in the source
Procedure: as §1

hCTR funct. EC50 (pM) [1]: 4750 pM | Ratio hCT/hAmylin funct. [2]: 24 | hAmylin-R funct. EC50 (pM) [2]: 198 pM | hCTR funct. EC50 (pM) [3]: 4750 pM | Ratio hCT/hAmylin funct. [4]: 24 | hAmylin-R funct. EC50 (pM) [4]: 198 pM | IC50 [5]: 275 pM | IC50 [6]: 275 pM
B1: N^ε-[(4S)-4-carboxy-4-(19-carboxynonadecanoylamino)butanoyl]Lys[Arg1,Arg17,Pro21,Pro27,His35]-h-amylin (peptide)
peptide: K([γGlu-C20 diacid])RCNTATCATQRLANFLRHSSPNFGAIPSSTNVGSHTY-NH2
modifications: disulfide 3-8; N-terminus assumed
SMILES: CC[C@H](C)[C@H](NC(=O)[C@H](C)NC(=O)CNC(=O)[C@H](Cc1ccccc1)NC(=O)[C@H](CC(N)=O)NC(=O)[C@@H]1CCCN1C(=O)[C@H](CO)NC(=O)[C@H](CO)NC(=O)[C@H](Cc1c[nH]cn1)NC(=O)[C@H](CCCNC(=N)N)NC(=O)[C@H](CC(C)C)NC(=O)[C@H](Cc1ccccc1)NC(=O)[C@H](CC(N)=O)NC(=O)[C@H](C)NC(=O)[C@H](CC(C)C)NC(=O)[C@H](CCCNC(=N)N)NC(=O)[C@H](CCC(N)=O)NC(=O)[C@@H](NC(=O)[C@H](C)NC(=O)[C@@H]1CSSC[C@H](NC(=O)[C@H](CCCNC(=N)N)NC(=O)[C@@H](N)CCCCNC(=O)CC[C@H](NC(=O)CCCCCCCCCCCCCCCCCCC(=O)O)C(=O)O)C(=O)N[C@@H](CC(N)=O)C(=O)N[C@@H]([C@@H](C)O)C(=O)N[C@@H](C)C(=O)N[C@@H]([C@@H](C)O)C(=O)N1)[C@@H](C)O)C(=O)N1CCC[C@H]1C(=O)N[C@@H](CO)C(=O)N[C@@H](CO)C(=O)N[C@H](C(=O)N[C@@H](CC(N)=O)C(=O)N[C@H](C(=O)NCC(=O)N[C@@H](CO)C(=O)N[C@@H](Cc1c[nH]cn1)C(=O)N[C@H](C(=O)N[C@@H](Cc1ccc(O)cc1)C(N)=O)[C@@H](C)O)C(C)C)[C@@H](C)O
notes: N-terminal extension by Lys at position -1; also called compound 44

hCTR funct. EC50 (pM) [1]: 5580 pM | hAmylin-R funct. EC50 (pM) [2]: 425 pM | hCTR funct. EC50 (pM) [3]: 5580 pM | hAmylin-R funct. EC50 (pM) [4]: 425 pM | IC50 [5]: 992 pM | IC50 [6]: 992 pM
B2: N^ε1-[(4S)-4-carboxy-4-(19-carboxynonadecanoylamino)butanoyl]-[Glu14,Arg17,Pro21,Pro27,His35]-h-amylin (peptide)
peptide: K([γGlu-C20 diacid])CNTATCATQRLAEFLRHSSPNFGAIPSSTNVGSHTY-NH2
modifications: disulfide 2-7; N-terminus assumed
SMILES: CC[C@H](C)[C@H](NC(=O)[C@H](C)NC(=O)CNC(=O)[C@H](Cc1ccccc1)NC(=O)[C@H](CC(N)=O)NC(=O)[C@@H]1CCCN1C(=O)[C@H](CO)NC(=O)[C@H](CO)NC(=O)[C@H](Cc1c[nH]cn1)NC(=O)[C@H](CCCNC(=N)N)NC(=O)[C@H](CC(C)C)NC(=O)[C@H](Cc1ccccc1)NC(=O)[C@H](CCC(=O)O)NC(=O)[C@H](C)NC(=O)[C@H](CC(C)C)NC(=O)[C@H](CCCNC(=N)N)NC(=O)[C@H](CCC(N)=O)NC(=O)[C@@H](NC(=O)[C@H](C)NC(=O)[C@@H]1CSSC[C@H](NC(=O)[C@@H](N)CCCCNC(=O)CC[C@H](NC(=O)CCCCCCCCCCCCCCCCCCC(=O)O)C(=O)O)C(=O)N[C@@H](CC(N)=O)C(=O)N[C@@H]([C@@H](C)O)C(=O)N[C@@H](C)C(=O)N[C@@H]([C@@H](C)O)C(=O)N1)[C@@H](C)O)C(=O)N1CCC[C@H]1C(=O)N[C@@H](CO)C(=O)N[C@@H](CO)C(=O)N[C@H](C(=O)N[C@@H](CC(N)=O)C(=O)N[C@H](C(=O)NCC(=O)N[C@@H](CO)C(=O)N[C@@H](Cc1c[nH]cn1)C(=O)N[C@H](C(=O)N[C@@H](Cc1ccc(O)cc1)C(N)=O)[C@@H](C)O)C(C)C)[C@@H](C)O

hCTR funct. EC50 (pM) [1]: 10100 pM | Ratio hCT/hAmylin funct. [2]: 17 | hAmylin-R funct. EC50 (pM) [2]: 594 pM | hCTR funct. EC50 (pM) [3]: 10100 pM | Ratio hCT/hAmylin funct. [4]: 17 | hAmylin-R funct. EC50 (pM) [4]: 594 pM | IC50 [5]: 552 pM | IC50 [6]: 552 pM
B3: N^ε-[2-[2-[2-[[(4S)-4-carboxy-4-(19-carboxynonadecanoylamino)butanoyl]amino]ethoxy]ethoxy]acetyl]Lys[Arg1,Arg17,Pro21,Pro27,His35]-h-amylin (peptide)
peptide: K([AEEA-γGlu-C20 diacid])RCNTATCATQRLANFLRHSSPNFGAIPSSTNVGSHTY-NH2
modifications: disulfide 3-8; N-terminus assumed
SMILES: CC[C@H](C)[C@H](NC(=O)[C@H](C)NC(=O)CNC(=O)[C@H](Cc1ccccc1)NC(=O)[C@H](CC(N)=O)NC(=O)[C@@H]1CCCN1C(=O)[C@H](CO)NC(=O)[C@H](CO)NC(=O)[C@H](Cc1c[nH]cn1)NC(=O)[C@H](CCCNC(=N)N)NC(=O)[C@H](CC(C)C)NC(=O)[C@H](Cc1ccccc1)NC(=O)[C@H](CC(N)=O)NC(=O)[C@H](C)NC(=O)[C@H](CC(C)C)NC(=O)[C@H](CCCNC(=N)N)NC(=O)[C@H](CCC(N)=O)NC(=O)[C@@H](NC(=O)[C@H](C)NC(=O)[C@@H]1CSSC[C@H](NC(=O)[C@H](CCCNC(=N)N)NC(=O)[C@@H](N)CCCCNC(=O)COCCOCCNC(=O)CC[C@H](NC(=O)CCCCCCCCCCCCCCCCCCC(=O)O)C(=O)O)C(=O)N[C@@H](CC(N)=O)C(=O)N[C@@H]([C@@H](C)O)C(=O)N[C@@H](C)C(=O)N[C@@H]([C@@H](C)O)C(=O)N1)[C@@H](C)O)C(=O)N1CCC[C@H]1C(=O)N[C@@H](CO)C(=O)N[C@@H](CO)C(=O)N[C@H](C(=O)N[C@@H](CC(N)=O)C(=O)N[C@H](C(=O)NCC(=O)N[C@@H](CO)C(=O)N[C@@H](Cc1c[nH]cn1)C(=O)N[C@H](C(=O)N[C@@H](Cc1ccc(O)cc1)C(N)=O)[C@@H](C)O)C(C)C)[C@@H](C)O
notes: N-terminal extension by Lys at position -1; also called compound 45
